According to the supplement of paper PMC9233669:
This sample holds only a part of the variants without activity.

What was measured:
biotinyl-Phe-oxazolone = assay: self-aminoacylation, catalytic enhancement (BFO) (fold over background); higher = more active; k-Seq, kA / k0A0; sequences stand for … in GGGAAUGGAUCCACAUCUACGAAUUC…UUCACUGCAGACUUGACGAAGCUG
Method in brief: (§1)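 Working in 50 μL HEPES/NaCl/KCl/MgCl2/CaCl2 buffer with 5% acetonitrile at pH 6.9–7.0, mutagenized RNA pools (0.43 μM; 21-nt variable region) were reacted with 2–1250 μM of each biotinyl-aminoacyl-oxazolone for 90 minutes at room temperature. Streptavidin capture followed, with quantification by triplicate qPCR and Illumina sequencing. Catalytic enhancement is reported as median kA over the uncatalyzed rate, the low-activity peak of a bimodal Gaussian fit to the data.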

biotinyl-Trp-oxazolone = assay: self-aminoacylation, catalytic enhancement (BWO) (fold over background); higher = more active; k-Seq, kA / k0A0; sequences stand for … in GGGAAUGGAUCCACAUCUACGAAUUC…UUCACUGCAGACUUGACGAAGCUG
Method in brief: as §1

biotinyl-Met-oxazolone = assay: self-aminoacylation, catalytic enhancement (BMO) (fold over background); higher = more active; k-Seq, kA / k0A0; sequences stand for … in GGGAAUGGAUCCACAUCUACGAAUUC…UUCACUGCAGACUUGACGAAGCUG
Method in brief: as §1

biotinyl-Ile-oxazolone = assay: self-aminoacylation, catalytic enhancement (BIO) (fold over background); higher = more active; k-Seq, kA / k0A0; sequences stand for … in GGGAAUGGAUCCACAUCUACGAAUUC…UUCACUGCAGACUUGACGAAGCUG
Method in brief: as §1

biotinyl-Leu-oxazolone = assay: self-aminoacylation, catalytic enhancement (BLO) (fold over background); higher = more active; k-Seq, kA / k0A0; sequences stand for … in GGGAAUGGAUCCACAUCUACGAAUUC…UUCACUGCAGACUUGACGAAGCUG
Method in brief: as §1

biotinyl-Val-oxazolone = assay: self-aminoacylation, catalytic enhancement (BVO) (fold over background); higher = more active; k-Seq, kA / k0A0; sequences stand for … in GGGAAUGGAUCCACAUCUACGAAUUC…UUCACUGCAGACUUGACGAAGCUG
Method in brief: as §1

Sequence | self-aminoacylation (biotinyl-Phe-oxazolone) | self-aminoacylation (biotinyl-Trp-oxazolone) | self-aminoacylation (biotinyl-Met-oxazolone) | self-aminoacylation (biotinyl-Ile-oxazolone) | self-aminoacylation (biotinyl-Leu-oxazolone) | self-aminoacylation (biotinyl-Val-oxazolone)
AAGUUUGCUAAAAGUCACAAG [Fam3.1 aminoacylation ribozyme variant] | 3.25 | 2 | 0.971 | 1.35 | 0.919 | 1.07
AAGUUUGCUAAAAGUCGCAAU [Fam3.1 aminoacylation ribozyme variant] | 1.15 | 1.69 | 1.37 | 1.24 | 0.929 | 1.17
AAGUUUGCUAAAAGUCGCGAG [Fam3.1 aminoacylation ribozyme variant] | 2.4 | 2.34 | 2.21 | 1.7 | 2.1 | 1.68
AAGUUUGCUAAAAGUUGCAAG [Fam3.1 aminoacylation ribozyme variant] | 1.18 | 0.711 | 1.07 | 0.983 | 0.968 | 0.781
AAGUUUGCUAACAGUCGCAAU [Fam3.1 aminoacylation ribozyme variant] | 0.994 | 1.58 | 1.22 | 1.13 | 0.968 | 0.959
AAGUUUGCUAACAGUCGCACG [Fam3.1 aminoacylation ribozyme variant] | 1.65 | 0.973 | 1.19 | 0.921 | 0.745 | 1.18
AAGUUUGCUAACAGUCUCAAG [Fam3.1 aminoacylation ribozyme variant] | 4.44 | 1.64 | 0.713 | 0.979 | 0.733 | 0.694
AAGUUUGCUAAGAAUCGCAAG [Fam3.1 aminoacylation ribozyme variant] | 0.824 | 0.588 | 0.503 | 0.583 | 0.521 | 0.58
AAGUUUGCUAAUAAUCGCAAA [Fam3.1 aminoacylation ribozyme variant] | 0.86 | 1.02 | 1.14 | 1.2 | 1.09 | 1.14
AAGUUUGCUAAUAAUUGCAAG [Fam3.1 aminoacylation ribozyme variant] | 1.1 | 0.832 | 0.862 | 0.961 | 0.877 | 0.857
AAGUUUGCUAAUACUCGCAAA [Fam3.1 aminoacylation ribozyme variant] | 1.26 | 1.71 | 1.22 | 1.2 | 0.837 | 1.05
AAGUUUGCUAAUACUCUCAAG [Fam3.1 aminoacylation ribozyme variant] | 0.931 | 0.527 | 0.512 | 0.693 | 0.63 | 0.721
AAGUUUGCUAAUAGACACAAG [Fam3.1 aminoacylation ribozyme variant] | 1.23 | 0.797 | 0.665 | 0.828 | 0.654 | 0.916
AAGUUUGCUAAUAGAGGCAAG [Fam3.1 aminoacylation ribozyme variant] | 0.955 | 0.788 | 0.692 | 0.762 | 0.554 | 0.733
AAGUUUGCUAAUAGCCGCAUG [Fam3.1 aminoacylation ribozyme variant] | 2 | 1.54 | 1.12 | 1.07 | 1.19 | 1.1
AAGUUUGCUAAUAGCGGCAAG [Fam3.1 aminoacylation ribozyme variant] | 0.964 | 0.924 | 0.508 | 0.668 | 0.575 | 0.646
AAGUUUGCUAAUAGGCGCGAG [Fam3.1 aminoacylation ribozyme variant] | 1.2 | 1.42 | 0.819 | 1.16 | 0.954 | 0.9
AAGUUUGCUAAUAGGCUCAAG [Fam3.1 aminoacylation ribozyme variant] | 0.973 | 0.535 | 0.493 | 0.664 | 0.715 | 0.774
AAGUUUGCUAAUAGUAGCAAG [Fam3.1 aminoacylation ribozyme variant] | 1.22 | 0.96 | 1.02 | 1.04 | 0.95 | 0.993
AAGUUUGCUAAUAGUAGCUAG [Fam3.1 aminoacylation ribozyme variant] | 1.05 | 1.14 | 1.28 | 0.958 | 0.639 | 0.988
AAGUUUGCUAAUAGUAUCAAG [Fam3.1 aminoacylation ribozyme variant] | 1.64 | 0.998 | 1.22 | 1 | 0.714 | 0.928
AAGUUUGCUAAUAGUCACAAG [Fam3.1 aminoacylation ribozyme variant] | 12.3 | 4.08 | 1.45 | 1.47 | 1.21 | 1.35
AAGUUUGCUAAUAGUCACAAU [Fam3.1 aminoacylation ribozyme variant] | 1.14 | 1.11 | 1.18 | 1.18 | 0.82 | 1.19
AAGUUUGCUAAUAGUCAGAAG [Fam3.1 aminoacylation ribozyme variant] | 2.61 | 2.22 | 1.01 | 0.943 | 0.808 | 0.937
AAGUUUGCUAAUAGUCCCACG [Fam3.1 aminoacylation ribozyme variant] | 0.69 | 0.714 | 0.931 | 0.727 | 0.838 | 0.679
